In assay [1] the target is T1, human KLK5 (human, UniProt Q9Y337 67-293).
T1 sequence: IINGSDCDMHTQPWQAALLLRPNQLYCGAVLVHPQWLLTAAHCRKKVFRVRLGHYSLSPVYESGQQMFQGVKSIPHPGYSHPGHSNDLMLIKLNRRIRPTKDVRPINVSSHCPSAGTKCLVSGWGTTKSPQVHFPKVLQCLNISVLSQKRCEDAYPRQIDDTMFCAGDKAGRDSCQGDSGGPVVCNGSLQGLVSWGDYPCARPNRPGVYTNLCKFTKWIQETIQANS
Put plainly: cell-based or functional assay.

In another assay the target is human KLK7 (human, UniProt P49862 30-253). Put plainly: cell-based or functional assay.
The next assay addresses T2, mouse KLK5 (mouse).
T2 chain: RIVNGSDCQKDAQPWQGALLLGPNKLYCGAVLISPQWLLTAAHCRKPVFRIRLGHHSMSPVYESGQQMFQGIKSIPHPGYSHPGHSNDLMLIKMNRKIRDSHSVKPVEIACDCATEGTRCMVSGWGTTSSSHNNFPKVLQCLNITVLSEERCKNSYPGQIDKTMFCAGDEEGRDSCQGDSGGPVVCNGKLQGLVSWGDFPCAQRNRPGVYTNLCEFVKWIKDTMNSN
As to the kind of experiment: cell-based or functional assay.

The next assay concerns the target mouse KLK7 (mouse, UniProt Q91VE3 26-249). Put plainly: cell-based or functional assay.
For a further assay, the target named is T3, mouse KLK14 (mouse, UniProt Q8CGR5 24-250).
T3 sequence: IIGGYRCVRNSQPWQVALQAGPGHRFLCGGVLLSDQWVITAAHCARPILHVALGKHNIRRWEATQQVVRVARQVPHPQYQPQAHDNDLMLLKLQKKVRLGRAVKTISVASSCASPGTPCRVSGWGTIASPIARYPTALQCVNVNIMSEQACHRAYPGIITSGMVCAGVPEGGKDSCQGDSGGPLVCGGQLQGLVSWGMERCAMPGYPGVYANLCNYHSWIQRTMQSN
As to the kind of experiment: cell-based or functional assay.

The target in assay [2] is T1, human KLK5. Put plainly: SPR, BIAcore T200; biotinylated KLK5 captured on chip, peptide as analyte; single cycle kinetics, 1:1 model. As for the experimental part:
In order to measure the binding affinity of the KLK5 inhibitory peptides, surface plasmon resonance analysis was conducted using BIAcore T 200 (GE healthcare). A complementary strand of DNA of a streptavidin conjugate was captured by hybridization on Sensor Chip CAP (GE healthcare) on which single-stranded DNA immobilized. Next, KLK5 biotinylated using EZ-Link NHS-PEG4-Biotin (Thermo Fisher Scientific) was captured at a flow rate of 10 μL/min to immobilize about 10 RU. Thereafter, the KLK5 inhibitory peptide, serially diluted 2-fold with HBS-EP (0.625 to 10 nM), was added thereto as an analyte at a flow rate of 30 μL/min. In the BIAcore T 200 Evaluation software (version 2.0), kon and koff were calculated by analysis using Single cycle kinetics in a simple one-to-one Langmuir binding model. The dissociation constant KD was calculated as a ratio of koff/kₒₙ. Further, multiple KLK5 inhibitory peptides were measured by regenerating Sensor Chip CAP using a Regeneration buffer attached to a Biotin CAPture Kit (GE healthcare) and repeatedly capturing biotinylated KLK5.
(In general: SPR reads the build-up and loss of mass on a sensor chip optically.)

The next assay deals with T4, human KLK14 (human, UniProt Q9P0G3 25-251).
T4 sequence: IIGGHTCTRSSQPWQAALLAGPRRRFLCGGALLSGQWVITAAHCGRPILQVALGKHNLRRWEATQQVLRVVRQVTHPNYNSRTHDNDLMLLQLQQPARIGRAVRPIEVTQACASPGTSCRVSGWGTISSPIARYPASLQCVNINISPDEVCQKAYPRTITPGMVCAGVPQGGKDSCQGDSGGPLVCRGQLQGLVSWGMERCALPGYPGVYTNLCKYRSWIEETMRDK
As to the kind of experiment: cell-based or functional assay.

In a further assay the target is T5, KLK4 (human, UniProt Q9Y5K2).
T5 construct: commercial enzyme (R&D Systems, 1719-SE); 1 µg/mL in the assay; substrate Boc-Val-Pro-Arg-AMC 100 µM; also called Human KLK4; hKLK4
T5 sequence (Q9Y5K2 31-254 limits assumed): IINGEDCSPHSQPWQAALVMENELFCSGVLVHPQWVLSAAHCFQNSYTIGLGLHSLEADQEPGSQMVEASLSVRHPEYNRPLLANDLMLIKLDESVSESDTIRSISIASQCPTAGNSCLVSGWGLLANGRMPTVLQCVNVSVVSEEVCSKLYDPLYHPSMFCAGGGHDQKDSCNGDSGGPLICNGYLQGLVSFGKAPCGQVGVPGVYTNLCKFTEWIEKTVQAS
As to the kind of experiment: fluorogenic peptide substrate cleavage, 1 µM inhibitor. As for the experimental part:
FIG. 3F includes graphs to evaluate the cross-reactivity of each inhibitory peptide with proteases, using the degradation of a peptide substrate as an index. For evaluating the Human KLK1 inhibitory activity, hKLK1 (R&D Systems, Inc., 2337-SE) with a final concentration of 0.1 μg/mL and a substrate peptide Pro-Phe-Arg-MCA (PEPTIDE […], INC., 3096-v) with a final concentration of 100 μM were used. For evaluating the Human KLK2 inhibitory activity, hKLK2 (R&D Systems, Inc., 4104-SE) with a final concentration of 2 μg/mL and a substrate peptide Pro-Phe-Arg-MCA (PEPTIDE […], INC., 3096-v) with a final concentration of 100 μM were used. For evaluating the Human KLK4 inhibitory activity, hKLK4 (R&D Systems, Inc., 1719-SE) with a final concentration of 1 μg/mL and a substrate peptide Boc-Val-Pro-Arg-AMC (R&D Systems, Inc., ES011) with a final concentration of 100 μM were used.
(§1) The specificities for other proteases were evaluated using the degradation of a substrate peptide as an index. As in the method described in (3-1), 25 μL each of a protease and a sample diluted with an assay buffer were mixed (to a final concentration of sample of 1 μM), followed by a reaction at 37° C. for 20 minutes. Thereafter, 50 μL of a substrate diluted with an assay buffer was added thereto, and the fluorescence signal was measured using Enspire (PerkinElmer). An assay buffer (50 mM Tris, 150 mM NaCl, pH 8.0) was used for the evaluation of the protease activity, and a PROTEOSAVE® SS96F black plate (Sumitomo Bakelite Co., Ltd.) was used for the reaction and the measurement. The combinations of the protease and the substrate used for the evaluation of the specificity were as follows.

Another assay concerns the target T6, KLK12 (human, UniProt Q9UKR0).
T6 construct: commercial enzyme (R&D Systems, 3095-SE); 0.1 µg/mL in the assay; substrate Boc-Val-Pro-Arg-AMC 100 µM; also called Human KLK12; hKLK12
T6 sequence (protease, looked up): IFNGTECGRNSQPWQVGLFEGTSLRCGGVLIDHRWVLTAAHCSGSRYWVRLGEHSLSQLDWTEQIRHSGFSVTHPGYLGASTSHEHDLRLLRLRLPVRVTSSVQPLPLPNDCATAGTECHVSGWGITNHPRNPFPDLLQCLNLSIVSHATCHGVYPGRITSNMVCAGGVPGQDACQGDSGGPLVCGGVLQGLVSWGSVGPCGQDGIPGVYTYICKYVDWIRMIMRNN
The description is as above. The protocol:
FIG. 3G includes graphs to evaluate the cross-reactivity of each inhibitory peptide with proteases, using the degradation of a peptide substrate as an index. For evaluating the Human KLK7 inhibitory activity, hKLK7 with a final concentration of 1 μg/mL and a substrate peptide Mca-Arg-Pro-Lys-Pro-Val-Glu-Nval-Trp-Arg-Lys (Dnp)-NH₂ (R&D Systems, Inc., ES002) with a final concentration of 20 μM were used. For evaluating the Human KLK8 inhibitory activity, hKLK8 (UniProt: 060259, prepared by the inventors) with a final concentration of 5 nM and a substrate peptide Boc-Val-Pro-Arg-AMC (R&D Systems, Inc., ES011) with a final concentration of 100 μM were used. For evaluating the Human KLK12 inhibitory activity, hKLK12 (R&D Systems, Inc., 3095-SE) with a final concentration of 0.1 μg/mL and a substrate peptide Boc-Val-Pro-Arg-AMC (R&D Systems, Inc., ES011) with a final concentration of 100 μM were used.
as §1

Where a chain is given by its changes, count along the chain named.

In general, Kd refers to the equilibrium constant for the complex coming apart. A higher Kd goes with weaker binding. As usually defined, the koff is the first-order rate constant of dissociation. Read a low koff as a long-lived complex. In general, kon refers to the second-order rate constant of association. Low values mean slower complex formation, high ones faster complex formation.

Chain of mouse KLK7 (Q91VE3 26-249): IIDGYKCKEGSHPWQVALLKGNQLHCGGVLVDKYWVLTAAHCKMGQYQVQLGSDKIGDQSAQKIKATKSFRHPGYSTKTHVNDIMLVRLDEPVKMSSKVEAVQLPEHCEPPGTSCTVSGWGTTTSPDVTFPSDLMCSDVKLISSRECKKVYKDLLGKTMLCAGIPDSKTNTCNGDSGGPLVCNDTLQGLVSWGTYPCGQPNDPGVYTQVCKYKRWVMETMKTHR
Chain of human KLK7 (P49862 30-253): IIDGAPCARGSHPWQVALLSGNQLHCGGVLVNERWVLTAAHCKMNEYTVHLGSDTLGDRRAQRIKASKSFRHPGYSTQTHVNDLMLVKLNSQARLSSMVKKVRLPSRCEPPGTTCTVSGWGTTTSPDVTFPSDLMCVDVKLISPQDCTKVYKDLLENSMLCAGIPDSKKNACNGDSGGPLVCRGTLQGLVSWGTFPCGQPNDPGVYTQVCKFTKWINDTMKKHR

B1: KLK5/KLK7 inhibitory peptide K51028 (peptide)
chain: GPQFGLFSKYRTPNCYQYRSKGCTHEYDPVCGSDMSTYANECTLCMKIREGGHNIKIIRNGPCGG
notes: SPINK2 mutant peptide made in E. coli
For B1, the “IC50(nM) for hKLK5” value with human KLK5 [1] was 6.1 nM. In addition, in the assay with human KLK7, the “IC50(nM) for hKLK7” value was 249 nM. For the same molecule, in the assay with mouse KLK5, the “IC50(nM) for mKLK5” value was less than 0.5 nM. Besides, the “IC50(nM) for mKLK7” value with mouse KLK7 turned out to be 77 nM. For the same molecule, the “IC50(nM) for mKLK14” value with mouse KLK14 is greater than 1000 nM. For the same molecule, in the assay with human KLK5 [2], the Kd was 0.014 nM, the koff stood at 2e-05 s⁻¹ and the kon amounted to 1.5e+06 M⁻¹ s⁻¹.

B2: KLK5 inhibitory peptide K50055 (peptide)
chain: B1 chain with Y16A, Q17N, Y18T, R19M, S20K, K21Q, G22D, H25R
notes: as for B1
Take B2: the “IC50(nM) for hKLK5” value with human KLK5 [1] came to 6.7 nM. The “IC50(nM) for hKLK14” value in the assay with human KLK14 is greater than 1000 nM. In addition, the “IC50(nM) for mKLK5” value in the assay with mouse KLK5 was less than 0.5 nM. Also, the “IC50(nM) for mKLK7” value in the assay with mouse KLK7 was greater than 1000 nM. For the same molecule, the “IC50(nM) for mKLK14” value with mouse KLK14 was greater than 1000 nM. Besides, in the assay with KLK4, the binding result is listed as “binds”. Besides, in the assay with KLK12, the binding result is “binds”. In the assay with human KLK5 [2], the dissociation constant Kd was found to be 0.019 nM, the off-rate constant (koff) is 1.8e-05 s⁻¹ and the kon stood at 980000 M⁻¹ s⁻¹.

B3: KLK5 inhibitory peptide K50098 (peptide)
chain: GPQFGLFSKYRTPNCTSQTLGSCSREYDPVCGSDMSTYANECTLCMKIREGGHNIKIIRNGPCGG
notes: as for B1
For the molecule B3, the “IC50(nM) for hKLK5” value in the assay with human KLK5 [1] came to 8.3 nM. Also, the “IC50(nM) for hKLK14” value in the assay with human KLK14 was 268 nM. The “IC50(nM) for mKLK5” value with mouse KLK5 was determined as 14 nM. Also, the “IC50(nM) for mKLK7” value in the assay with mouse KLK7 is greater than 1000 nM. Further, the “IC50(nM) for mKLK14” value with mouse KLK14 stood at 547 nM. Besides, the binding result with KLK4 was “binds”. The binding result with KLK12 is given as “binds”. In the assay with human KLK5 [2], this molecule gave a Kd of 0.018 nM, an off-rate constant (koff) of 1.8e-05 s⁻¹ and a kon of 1e+06 M⁻¹ s⁻¹.

B4: KLK5 inhibitory peptide K50032 (peptide)
chain: B3 chain with T16L, S17N, Q18W, L20D, G21H, S22Q, S24E, E26D
notes: as for B1
With B4, the “IC50(nM) for hKLK5” value in the assay with human KLK5 [1] worked out at 7.1 nM. Moreover, the “IC50(nM) for mKLK5” value in the assay with mouse KLK5 was determined as 127 nM. Further, the “IC50(nM) for mKLK7” value with mouse KLK7 is greater than 1000 nM. In addition, in the assay with mouse KLK14, the “IC50(nM) for mKLK14” value was greater than 1000 nM. In addition, the binding result with KLK12 is given as “binds”. In the assay with human KLK5 [2], the affinity, expressed as Kd, was 0.13 nM; the koff came out at 0.00027 s⁻¹; the kon is 2e+06 M⁻¹ s⁻¹.

B5: KLK5 inhibitory peptide K50016 (peptide)
chain: B3 chain with T16S, S17Q, Q18W, T19Q, L20Y, G21S, S24D, E26V
notes: as for B1
On to B5, for which the “IC50(nM) for hKLK5” value with human KLK5 [1] stood at 6.9 nM. Moreover, the “IC50(nM) for mKLK5” value with mouse KLK5 is 15 nM. Further, the “IC50(nM) for mKLK7” value with mouse KLK7 was greater than 1000 nM. Besides, in the assay with mouse KLK14, the “IC50(nM) for mKLK14” value is greater than 1000 nM. Besides, the binding result in the assay with KLK4 was “binds”. In the assay with human KLK5 [2], the Kd was determined as 0.042 nM, the off-rate (koff) was determined as 0.00029 s⁻¹ and the association rate constant (kon) was found to be 7e+06 M⁻¹ s⁻¹.

B6: KLK5 inhibitory peptide K51072 (peptide)
chain: GPQFGLFSKYRTPNCQEDMTEYCARDFDPVCGSDMSTYANECTLCMKIREGGHNIKIIRNGPCGG
notes: as for B1
As for B6, the “IC50(nM) for hKLK5” value in the assay with human KLK5 [1] was determined as 7 nM. Moreover, the “IC50(nM) for hKLK14” value with human KLK14 worked out at 434 nM. Besides, the “IC50(nM) for mKLK5” value in the assay with mouse KLK5 was determined as 2 nM. Also, the “IC50(nM) for mKLK7” value in the assay with mouse KLK7 is 512 nM. Further, in the assay with mouse KLK14, the “IC50(nM) for mKLK14” value is greater than 1000 nM. In addition, the binding result in the assay with KLK4 is recorded as “binds”. Further, in the assay with KLK12, the binding result was “binds”. In the assay with human KLK5 [2], this molecule displayed a Kd of 0.026 nM, an off-rate (koff) of 2.2e-05 s⁻¹ and a kon of 840000 M⁻¹ s⁻¹.

B7: KLK5 inhibitory peptide K51090 (peptide)
chain: GPQFGLFSKYRTPNCDEIGKYGCGRSYDPVCGSDMSTYANECTLCMKIREGGHNIKIIRNGPCGG
notes: as for B1
For the molecule B7, the “IC50(nM) for hKLK5” value with human KLK5 [1] amounted to 4.5 nM. For the same molecule, the “IC50(nM) for hKLK7” value with human KLK7 is greater than 1000 nM. Moreover, the “IC50(nM) for hKLK14” value with human KLK14 was greater than 1000 nM. For the same molecule, in the assay with mouse KLK5, the “IC50(nM) for mKLK5” value worked out at 2 nM. Also, in the assay with mouse KLK7, the “IC50(nM) for mKLK7” value turned out to be 658 nM. The “IC50(nM) for mKLK14” value with mouse KLK14 is greater than 1000 nM. For the same molecule, the binding result in the assay with KLK4 is “binds”. Moreover, in the assay with human KLK5 [2], the dissociation constant (Kd) was found to be 0.027 nM, the off-rate (koff) was found to be 5.7e-05 s⁻¹ and the kon was determined as 2.1e+06 M⁻¹ s⁻¹.

The values above are taken from patent publication US20210032313A1 (Daiichi Sankyo, published 2021).
